Laboratory results taken from patent US11406709B2, “Therapeutic and research application of PDCL3” (TRUSTEES OF BOSTON UNIVERSITY, priority 2014, dated 2022).

Columns and labels:
VEGFR-2 = experiment: In vitro transcription/translation of VEGFR-2; assay type: biochemical
Method: FIG. 1A. HEK-293 cells expressing VEGFR-2 were transfected with different concentrations of C-terminus Myc-tagged PDCL3. After 48 hours cells were lysed and whole cell lysates (WCL) were blotted for VEGFR-2, PDCL3 and Hsp70 for loading control. Quantification of premature (newly synthesized and partially glycosylated VEGFR-2 corresponding to lower molecular weight) and mature (fully glycosylated) forms of VEGFR-2 is shown. Mean results of three independent experiments are shown. *P=0.04 and […]. FIG. 1B. Human umbilical vein endothelial cells (HUVECs) were transfected with control siRNA or PDCL3-siRNA. After 48 hours cells serum-starved for overnight followed by stimulation with VEGF for 10 minutes. Cells were lysed and whole cell lysates were blotted for phospho-Y1054-VEGFR-2, total VEGFR-2, PDCL3 and Hsp70 for loading control. FIG. 1C. Thermo-induced aggregation of VEGFR-2 was measured using PSA dye as described in the materials and method section. FIG. 1D. In vitro transcription/translation of VEGFR-2 in the absence or presence of exogenous recombinant PDCL3 was performed as described in the materials and method section and schematic of the procedure is shown. FIG. 1E. In vitro translated VEGFR-2 protein in the absence or presence of exogenous recombinant PDCL3 was blotted for VEGFR-2. FIG. 1F. […]

[1] = tested on: VEGFR-1, CSF-1R and PDGFRβ; experiment: Cell-free protein synthesis, rabbit reticulocyte transcription/translation system; assay type: biochemical; conditions: TNT Quick Coupled Transcription/Translation System
Method: FIG. 12A. Schematic of the experiment is shown. FIG. 12B. In vitro translation and transcription was performed as recommended by the manufacturer except in one group recombinant PDCL3 was added into reaction mixture.
To test whether PDCL3 also could increase expression of cell surface receptors in a cell-free protein synthesis system, we tested the effect of PDCL3 in rabbit reticulocyte system.

B1: recombinant PDCL3 protein: exogenous recombinant PDCL3 protein added to in vitro translation; purified GST-PDCL3 in aggregation assay (protein)
chain: MQDPNADTEWNDILRKKGILPPKESLKELEEEAEEEQRILQQSVVKTYEDMTLEELEDHEDEFNEEDERAIEMYRRRRLAEWKATKLKNKFGEVLEISGKDYVQEVTKAGEGLWVILHLYKQGIPLCALINQHLSGLARKFPDVKFIKAISTTCIPNYPDRNLPTIFVYLEGDIKAQFIGPLVFGGMNLTRDELEWKLSESGAIMTDLEENPKKPIEDVLLSSVRRSVLMKRDSDSEGD
modifications: left off: small tags and cut ends
notes: exogenous recombinant PDCL3 protein added to in vitro translation; purified GST-PDCL3 in aggregation assay
- yield of in vitro translated VEGFR-2 (VEGFR-2): significantly increases the yield of in vitro translated VEGFR-2
- expression of VEGFR-1, CSF-1R and PDGFRβ [1]: significantly increased expression of VEGFR-1, CSF-1R and PDGFRβ
